The text below walks through data of patent EP4086281A1 (China Immunotech (Beijing) Biotechnology Co., Ltd, dated 2022).

For this test, the target named is T1, CD19 expressed by Raji cells (human lymphoma cell line) (human, UniProt P15391 20-556).
T1 construct: whole, on cells; On intact Raji cells in flow cytometry and co-culture; In the western blot it is the denatured protein of a Raji lysate (band of 95kD); also called CD19 protein in the Raji cells
T1 sequence (looked up): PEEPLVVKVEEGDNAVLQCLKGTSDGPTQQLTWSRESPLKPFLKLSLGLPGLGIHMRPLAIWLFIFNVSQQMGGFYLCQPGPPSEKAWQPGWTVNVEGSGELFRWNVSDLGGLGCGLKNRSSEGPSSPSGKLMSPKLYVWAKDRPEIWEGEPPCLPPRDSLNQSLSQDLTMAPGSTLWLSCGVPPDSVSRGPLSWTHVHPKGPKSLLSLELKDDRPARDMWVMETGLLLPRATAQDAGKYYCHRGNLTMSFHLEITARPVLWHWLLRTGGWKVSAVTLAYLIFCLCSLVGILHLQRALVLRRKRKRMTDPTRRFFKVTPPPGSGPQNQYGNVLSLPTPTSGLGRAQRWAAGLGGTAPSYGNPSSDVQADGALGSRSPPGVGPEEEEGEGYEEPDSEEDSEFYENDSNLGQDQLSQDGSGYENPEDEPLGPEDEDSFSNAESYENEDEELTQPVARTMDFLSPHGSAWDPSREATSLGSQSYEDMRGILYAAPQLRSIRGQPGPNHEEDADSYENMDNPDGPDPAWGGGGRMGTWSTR
Kind of test: flow cytometry on Raji cells, antibody titrated from 0 to 375 nM, curve fitted with GraphPad.

B1: monoclonal antibody 334 targeting CD19 (hybridoma CGMCC No. 17095) (antibody, V domains shown)
VH: QVQLQQSGAELVRPGASVKLSCKALGFIFTDYEIHWVKQTPVHGLEWIGAFHPGSGGSAYNQKFKGKATLTADKSSSTAYMELSSLTFEDSAVYHCTRQLGPDWGQGTLVTVS
VL: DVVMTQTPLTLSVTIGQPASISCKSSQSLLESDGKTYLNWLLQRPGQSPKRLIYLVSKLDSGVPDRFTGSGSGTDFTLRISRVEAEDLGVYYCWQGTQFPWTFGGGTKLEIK
notes: it is a hybridoma antibody detected with anti-mouse secondary antibodies
In turn, B1 came in with a Kd of 1.53 nM.
